Reference: patent US20240181074A1, “PEGYLATED T CELL ENGAGER WITH DUAL SPECIFICITIES TO CD3 AND CD19” (Shenzhen Enduring Biotech, Ltd., priority 2021, published 2024)

Columns and labels:
MS patients = conditions: at 48 weeks; cited from earlier work
patients = conditions: human, in vivo; cited from earlier work
human CD19 [1] = biological target: T1, human CD19 (Homo sapiens, UniProt P15391); assay: ELISA assay, binding to human CD19 protein; conditions: OD450
T1 sequence (P15391 20-291 limits assumed): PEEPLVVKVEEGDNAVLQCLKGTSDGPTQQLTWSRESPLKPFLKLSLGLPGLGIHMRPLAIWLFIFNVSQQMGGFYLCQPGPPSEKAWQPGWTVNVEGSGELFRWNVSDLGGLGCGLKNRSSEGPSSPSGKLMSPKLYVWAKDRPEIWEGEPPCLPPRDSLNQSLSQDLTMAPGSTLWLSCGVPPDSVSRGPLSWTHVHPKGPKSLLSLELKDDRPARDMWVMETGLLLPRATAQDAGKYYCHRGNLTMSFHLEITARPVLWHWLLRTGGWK
Method: (§1) Plates were coated with SCACD3, CD3-PEG and JY108 respectively at 100 μl/well. […] After coating, each plate was washed for 3 times with PBST (200 μL/well). Next, each plate was blocked with 5% BSA in PBST at 37° C. for 2 hours. After blocking, each plate was washed with PBST for 3 times followed by the addition of either […], 0.1 μg, and 0 μg human CD19-Fc protein (Acrobiosystems, Code: CD9-H5259) in 0.5% BSA in PBST (10 μg/mL, 1 μg/mL, 0 μg/mL, 100 μL/well) or […] human CD3E&CD3D (Acrobiosytems, Code: CDD-H52W0) in 0.5% BSA in PBST (10 μg/mL, 100 μl/well) to corresponding wells. The plates were incubated at 37° C. for 1 hour followed by washing with PBST for 3 times. 100 μL of […] HRP conjugated anti-human IgG (GenScript, Code: A01854) was then added to each well. The plates were incubated at 37° C. for 1.5 hours. After incubation, each plate was washed with PBST for 3 times followed by the addition of 100 μL of TMB to each well. The development reaction for each plate was set in dark for 15 minutes and terminated with 100 μL/per well of stop solution.

human CD19 [2] = biological target: T1, human CD19; assay: BiaCore assay, binding to human CD19; conditions: ligand human CD19 captured on chip
Text: (§2) The anti-CD3 scFv (SCACD3) has the amino acid sequence set forth in SEQ ID NO: 2. The anti-CD19 scFv (SCACD19) has the amino acid sequence set forth in SEQ ID NO: 1. Methods for preparation of theses samples were described in detail in WO 2018/075308 A1.
(§3) General procedure: Diluted human CD19 (AcroBiosystems, Cat. CD19-H5259) or human CD3E&3D (AcroBiosystems, Cat. CDD-H52W0) were captured on the sensor chip through Fc capture method. The capture time for human CD3E & CD3D and for human CD19 was set for 12 s and 12-30 s respectively and capture flow rate was […]. Each sample tested was serially diluted into 6-8 concentrations. The association time and dissociation time for the analytes were set for 180 s and 420 s respectively, and the flow rate for the analyte was set at […]. For surface regeneration, 10 mM Glycine-HCl buffer was used; the contact time was set for 30 s and the flow rate was […]. Flow cell 1 and blank injection of buffer in each cycle were used as double references for Response Units subtraction. All data were processed using BiaCore T2000 Evaluation software (version 3.1).

human CD3E&CD3D protein = biological target: T2, human CD3E&CD3D protein (Homo sapiens, UniProt P07766); assay: ELISA assay, binding to human CD3E&CD3D protein; conditions: coating concentration of 1 μg/ml, OD450
T2 construct: purchased AcroBiosystems CDD-H52W0
Method: as §1

[3] = human, in vivo; cited from earlier work
human CD3E&3D = biological target: T3, human CD3E&3D (Homo sapiens, UniProt P07766); assay: BiaCore assay, binding to human CD3E&3D; conditions: ligand human CD3E&3D captured on chip
T3 construct: purchased AcroBiosystems CDD-H52W0
Text: as §2, §3

[4] = in vivo; cited from earlier work

T3 sequence (P07766 23-126 limits assumed): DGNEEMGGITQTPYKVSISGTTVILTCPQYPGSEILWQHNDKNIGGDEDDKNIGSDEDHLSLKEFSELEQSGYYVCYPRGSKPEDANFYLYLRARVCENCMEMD
T3 sequence (P04234 22-105 partner limits assumed): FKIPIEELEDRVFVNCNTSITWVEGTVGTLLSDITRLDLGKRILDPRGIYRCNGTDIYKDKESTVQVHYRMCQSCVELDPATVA
T2 sequence (P07766 23-126 limits assumed): as the sequence (P07766 23-126 limits assumed) above
T2 sequence (P04234 22-105 partner limits assumed): as the sequence (P04234 22-105 partner limits assumed) above

Substance | MS patients experiencing relapse of the disease (MS patients) | toxicity in patients (patients) | ranking of binding to human CD19 (human CD19 [1]) | Kd (human CD19 [2]) | ka (human CD19 [2]) | kd (human CD19 [2]) | Kd (human CD19 [2]; listed as blinatumomab) | ranking of affinity to human CD3E&CD3D (human CD3E&CD3D protein) | circulation half-life [3] | Kd (human CD3E&3D) | ka (human CD3E&3D) | kd (human CD3E&3D) | half-life [4]
rituximab: anti-CD20 antibody | ~20% |  |  |  |  |  |  |  |  |  |  |  | 
Blinatumomab: T-BsAb or BiTE (Bispecific T cell Engager) approved for ALL, redirecting T cells to CD19+ B cells; control drug |  | frequent cytokine release syndrome (CRS) and central nerve system (CNS) toxicity | SCACD19>blinatumomab>JY108>SCACD19-linker | 0.207 nM | 1.92e+06 M⁻¹ s⁻¹ | 0.000397 s⁻¹ | 0.207 nM | SCACD3>blinatumomab>JY108>SCACD3-PEG | 1.25 h | 1.14 nM | 1.08e+06 M⁻¹ s⁻¹ | 0.00123 s⁻¹ | about 2 h
